The supplement of paper PMC5998384

Tests used:
HeLa Kyoto [1] = test: solubility change mitosis vs G1/S (difference of NP-40 vs SDS log2 ratios) (log2 ratio difference); higher = more soluble in mitosis
HeLa Kyoto [2] = test: solubility in G1/S (NP-40 vs SDS abundance) (log2 ratio); higher = more soluble; conditions: cell cycle stage: G1/S
HeLa Kyoto [3] = test: melting temperature (median over replicates), in situ; higher = more thermally stable
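Throughout, for melting temperature (median over replicates), in situ: HeLa Kyoto cells synchronized by double thymidine or nocodazole block, proteins quantified by TMT10plex mass spectrometry, three independent biological replicates.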
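Throughout, for solubility change mitosis vs G1/S (difference of NP-40 vs SDS log2 ratios): synchronized HeLa Kyoto cells (double thymidine block for G1/S, nocodazole release for mitosis), protein amounts in NP-40 versus SDS lysates quantified by mass spectrometry, three biological replicates.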
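Throughout, for solubility in G1/S (NP-40 vs SDS abundance): HeLa Kyoto cells arrested at G1/S by double thymidine block, proteins quantified by TMT10plex mass spectrometry in mild NP-40 versus SDS extracts, three biological replicates.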

MEDPFEEADQPTTEPGMVLDSVEAGDTTPPTKRKSKFSGFGKIFKPWKWRKKKSSDKFKETSEVLERKISMRKPREELVKRGVLLEDPEQGGEDPGKPSDAMLKNGHTTPIGNARSSSPVQVEEEPVRLASLRKAIPEEDLKKRLGSTGSQPNSEAESVPENVPKPPLLPPKRPLSSSHEASEGQAKDATSSGGTARFIISTSITTAPAATTAATSLAKTVNLSVTPSPAPRTLPAAPASTNTTATPSLTHMVPAKQPPIPPPKPAHRNSNPVIAELSQAINSGTLLSKPSPPLPPKRGIPSTSVPTLESAAAITTKTPSDEREKSTCSMGSELLPMISPRSPSPPLPTHIPPEPPRTPPFPAKTFQVVPEIEFPPSLDLHQEIPQQEDQKKEVPKRILDQNFGEPHIPSRLPPLPLHIRIQQALTSPLPMTPILEGSHRAHSLLFENSDSFSEDSSTLGRTRSLPITIEMLKVPDDEEEEEQTCPSTFSEEMTPTSVIPKLPQCLREEEEKESDSDSEGPIQYRDEEDEDESYQSALANKVKRKDTLAMKLNHRPSEPELNLNSWPCKSKEEWNEIRHQIGNTLIRRLSQRPTPEELEQRNILQPKNEADRQAEKREIKRRLTRKLSQRPTVAELLARKILRFNEYVEVTDAQDYDRRADKPWTKLTPADKAAIRKELNEFKSSEMEVHEESKHFTRYHRP [PHACTR4]
solubility change mitosis (log2) (HeLa Kyoto [1]): 0.0651 | solubility in G1/S (log2) (HeLa Kyoto [2]): 0.401 | melting temperature (HeLa Kyoto [3]; cell cycle stage: G1/S): 54.3 °C | melting temperature (HeLa Kyoto [3]; cell cycle stage: mitosis): 54.9 °C

MEESEPERKRARTDEVPAGGSRSEAEDEDDEDYVPYVPLRQRRQLLLQKLLQRRRKGAAEEEQQDSGSEPRGDEDDIPLGPQSNVSLLDQHQHLKEKAEARKESAKEKQLKEEEKILESVAEGRALMSVKEMAKGITYDDPIKTSWTPPRYVLSMSEERHERVRKKYHILVEGDGIPPPIKSFKEMKFPAAILRGLKKKGIHHPTPIQIQGIPTILSGRDMIGIAFTGSGKTLVFTLPVIMFCLEQEKRLPFSKREGPYGLIICPSRELARQTHGILEYYCRLLQEDSSPLLRCALCIGGMSVKEQMETIRHGVHMMVATPGRLMDLLQKKMVSLDICRYLALDEADRMIDMGFEGDIRTIFSYFKGQRQTLLFSATMPKKIQNFAKSALVKPVTINVGRAGAASLDVIQEVEYVKEEAKMVYLLECLQKTPPPVLIFAEKKADVDAIHEYLLLKGVEAVAIHGGKDQEERTKAIEAFREGKKDVLVATDVASKGLDFPAIQHVINYDMPEEIENYVHRIGRTGRSGNTGIATTFINKACDESVLMDLKALLLEAKQKVPPVLQVLHCGDESMLDIGGERGCAFCGGLGHRITDCPKLEAMQTKQVSNIGRKDYLAHSSMDF [DDX41]
solubility change mitosis (log2) (HeLa Kyoto [1]): 0.325 | solubility in G1/S (log2) (HeLa Kyoto [2]): -0.425 | melting temperature (HeLa Kyoto [3]; cell cycle stage: G1/S): 47.5 °C | melting temperature (HeLa Kyoto [3]; cell cycle stage: mitosis): 49 °C

MEGGFGSDFGGSGSGKLDPGLIMEQVKVQIAVANAQELLQRMTDKCFRKCIGKPGGSLDNSEQKCIAMCMDRYMDAWNTVSRAYNSRLQRERANM [TIMM13]
solubility change mitosis (log2) (HeLa Kyoto [1]): 0.337 | solubility in G1/S (log2) (HeLa Kyoto [2]): -0.594 | melting temperature (HeLa Kyoto [3]; cell cycle stage: G1/S): 53.8 °C

MEKIEEQFANLHIVKCSLGTKEPTYLLGIDTSKTVQAGKENLVAVLCSNGSIRIYDKERLNVLREFSGYPGLLNGVRFANSCDSVYSACTDGTVKCWDARVAREKPVQLFKGYPSNIFISFDINCNDHIICAGTEKVDDDALLVFWDARMNSQNLSTTKDSLGAYSETHSDDVTQVRFHPSNPNMVVSGSSDGLVNVFDINIDNEEDALVTTCNSISSVSCIGWSGKGYKQIYCMTHDEGFYWWDLNHLDTDEPVTRLNIQDVREVVNMKEDALDYLIGGLYHEKTDTLHVIGGTNKGRIHLMNCSMSGLTHVTSLQGGHAATVRSFCWNVQDDSLLTGGEDAQLLLWKPGAIEKTFTKKESMKIASSVHQRVRVHSNDSYKRRKKQ [WDR89]
solubility change mitosis (log2) (HeLa Kyoto [1]): 0.369 | solubility in G1/S (log2) (HeLa Kyoto [2]): -1.26 | melting temperature (HeLa Kyoto [3]; cell cycle stage: G1/S): 57.4 °C | melting temperature (HeLa Kyoto [3]; cell cycle stage: mitosis): 55.9 °C

MEPAVSLAVCALLFLLWVRLKGLEFVLIHQRWVFVCLFLLPLSLIFDIYYYVRAWVVFKLSSAPRLHEQRVRDIQKQVREWKEQGSKTFMCTGRPGWLTVSLRVGKYKKTHKNIMINLMDILEVDTKKQIVRVEPLVTMGQVTALLTSIGWTLPVLPELDDLTVGGLIMGTGIESSSHKYGLFQHICTAYELVLADGSFVRCTPSENSDLFYAVPWSCGTLGFLVAAEIRIIPAKKYVKLRFEPVRGLEAICAKFTHESQRQENHFVEGLLYSLDEAVIMTGVMTDEAEPSKLNSIGNYYKPWFFKHVENYLKTNREGLEYIPLRHYYHRHTRSIFWELQDIIPFGNNPIFRYLFGWMVPPKISLLKLTQGETLRKLYEQHHVVQDMLVPMKCLQQALHTFQNDIHVYPIWLCPFILPSQPGLVHPKGNEAELYIDIGAYGEPRVKHFEARSCMRQLEKFVRSVHGFQMLYADCYMNREEFWEMFDGSLYHKLREKLGCQDAFPEVYDKICKAARH [DHCR24]
solubility change mitosis (log2) (HeLa Kyoto [1]): -0.166 | solubility in G1/S (log2) (HeLa Kyoto [2]): -0.264 | melting temperature (HeLa Kyoto [3]; cell cycle stage: G1/S): 51.3 °C | melting temperature (HeLa Kyoto [3]; cell cycle stage: mitosis): 52.3 °C

MEQPWPPPGPWSLPRAEGEAEEESDFDVFPSSPRCPQLPGGGAQMYSHGIELACQKQKEFVKSSVACKWNLAEAQQKLGSLALHNSESLDQEHAKAQTAVSELRQREEEWRQKEEALVQREKMCLWSTDAISKDVFNKSFINQDKRKDTEDEDKSESFMQKYEQKIRHFGMLSRWDDSQRFLSDHPYLVCEETAKYLILWCFHLEAEKKGALMEQIAHQAVVMQFIMEMAKNCNVDPRGCFRLFFQKAKAEEEGYFEAFKNELEAFKSRVRLYSQSQSFQPMTVQNHVPHSGVGSIGLLESLPQNPDYLQYSISTALCSLNSVVHKEDDEPKMMDTV [CDC37L1]
solubility change mitosis (log2) (HeLa Kyoto [1]): -0.0113 | solubility in G1/S (log2) (HeLa Kyoto [2]): 0.655 | melting temperature (HeLa Kyoto [3]; cell cycle stage: G1/S): 46.3 °C | melting temperature (HeLa Kyoto [3]; cell cycle stage: mitosis): 50.9 °C

METPGASASSLLLPAASRPPRKREAGEAGAATSKQRVLDEEEYIEGLQTVIQRDFFPDVEKLQAQKEYLEAEENGDLERMRQIAIKFGSALGKMSREPPPPYVTPATFETPEVHAGTGVVGNKPRPRGRGLEDGEAGEEEEKEPLPSLDVFLSRYTSEDNASFQEIMEVAKERSRARHAWLYQAEEEFEKRQKDNLELPSAEHQAIESSQASVETWKYKAKNSLMYYPEGVPDEEQLFKKPRQVVHKNTRFLRDPFSQALSRCQLQQAAALNAQHKQGKVGPDGKELIPQESPRVGGFGFVATPSPAPGVNESPMMTWGEVENTPLRVEGSETPYVDRTPGPAFKILEPGRRERLGLKMANEAAAKNRAKKQEALRRVTENLASLTPKGLSPAMSPALQRLVSRTASKYTDRALRASYTPSPARSTHLKTPASGLQTPTSTPAPGSATRTPLTQDPASITDNLLQLPARRKASDFF [DGCR14]
solubility change mitosis (log2) (HeLa Kyoto [1]): 0.458 | solubility in G1/S (log2) (HeLa Kyoto [2]): 0.334 | melting temperature (HeLa Kyoto [3]; cell cycle stage: G1/S): 50 °C | melting temperature (HeLa Kyoto [3]; cell cycle stage: mitosis): 52.4 °C

MFVSDFRKEFYEVVQSQRVLLFVASDVDALCACKILQALFQCDHVQYTLVPVSGWQELETAFLEHKEQFHYFILINCGANVDLLDILQPDEDTIFFVCDTHRPVNVVNVYNDTQIKLLIKQDDDLEVPAYEDIFRDEEEDEEHSGNDSDGSEPSEKRTRLEEEIVEQTMRRRQRREWEARRRDILFDYEQYEYHGTSSAMVMFELAWMLSKDLNDMLWWAIVGLTDQWVQDKITQMKYVTDVGVLQRHVSRHNHRNEDEENTLSVDCTRISFEYDLRLVLYQHWSLHDSLCNTSYTAARFKLWSVHGQKRLQEFLADMGLPLKQVKQKFQAMDISLKENLREMIEESANKFGMKDMRVQTFSIHFGFKHKFLASDVVFATMSLMESPEKDGSGTDHFIQALDSLSRSNLDKLYHGLELAKKQLRATQQTIASCLCTNLVISQGPFLYCSLMEGTPDVMLFSRPASLSLLSKHLLKSFVCSTKNRRCKLLPLVMAAPLSMEHGTVTVVGIPPETDSSDRKNFFGRAFEKAAESTSSRMLHNHFDLSVIELKAEDRSKFLDALISLLS [CDC45]
solubility change mitosis (log2) (HeLa Kyoto [1]): -0.126 | solubility in G1/S (log2) (HeLa Kyoto [2]): -0.233 | melting temperature (HeLa Kyoto [3]; cell cycle stage: G1/S): 47.6 °C | melting temperature (HeLa Kyoto [3]; cell cycle stage: mitosis): 48.5 °C

MGAQFSKTAAKGEAAAERPGEAAVASSPSKANGQENGHVKVNGDASPAAAESGAKEELQANGSAPAADKEEPAAAGSGAASPSAAEKGEPAAAAAPEAGASPVEKEAPAEGEAAEPGSPTAAEGEAASAASSTSSPKAEDGATPSPSNETPKKKKKRFSFKKSFKLSGFSFKKNKKEAGEGGEAEAPAAEGGKDEAAGGAAAAAAEAGAASGEQAAAPGEEAAAGEEGAAGGDPQEAKPQEAAVAPEKPPASDETKAAEEPSKVEEKKAEEAGASAAACEAPSAAGPGAPPEQEAAPAEEPAAAAASSACAAPSQEAQPECSPEAPPAEAAE [MARCKS]
solubility change mitosis (log2) (HeLa Kyoto [1]): 0.579 | solubility in G1/S (log2) (HeLa Kyoto [2]): -0.36 | melting temperature (HeLa Kyoto [3]; cell cycle stage: G1/S): 55.6 °C
